Data set [1] has as its system FeCl3-induced platelet-dependent arterial thrombosis. Briefly: Rat model of FeCl3-induced platelet-dependent arterial thrombosis, intravenous administration. The following applies: dose that prevents complete thrombotic occlusion in 50% of animals. The class given is in vivo. How it is done:
The antithrombotic (prevention of thrombus formation) properties of NAP were evaluated using the established experimental rat model of acute vascular thrombosis.
The rat FeCl3 model is a well characterized model of platelet dependent, arterial thrombosis which has been used to evaluate potential antithrombotic compounds. Kurz, K. D., Main, B. W., and Sandusky, G. E., Thromb. Res., 60: 269-280 (1990). In this model a platelet-rich, occlusive thrombus is formed in a segment of the rat carotid artery treated locally with a fresh solution of FeCl3 absorbed to a piece of filter paper. The FeCl3 is thought to diffuse into the treated segment of artery and cause de-endothelialization of the affected vessel surface. […] The net result is occlusive thrombus formation. The effect of a test compound on the incidence of occlusive thrombus formation following application of FeCl3 is monitored by ultrasonic flowtometry and is used as the primary end point. […]
Following surgery the animals were randomized in either a control (saline) or treatment (recombinant AcaNAP5) group. […] Blood pressure, blood flow, heart rate, and respiration were monitored for 60 minutes. The incidence of occlusion (defined as the attainment of zero blood flow) was recorded as the primary end point.

Data set [2] relates to normal citrated human plasma. Briefly: Prothrombin time (PT) assay. The following applies: for Doubling Concentration (nM) in the PT: concentration that doubled the control clotting time (12.1 seconds) of normal human plasma; for coagulation time of human plasma (Prothrombin Time Assay), in words: P. pastoris culture supernatant / growth media. The class given is biochemical. As to the method: (§1) The ex vivo anticoagulant effects of NAPs of the present invention in human plasma were evaluated by measuring the prolongation of the activated partial thromboplastin time (aPTT) and prothrombin time (PT) over a broad concentration range of each inhibitor.
(§2) Fresh frozen pooled normal citrated human plasma was obtained from George King Biomedical, Overland Park, Kans. Respective measurements of aPTT and PT were made using the Coag-A-Mate RA4 automated coagulometer (General Diagnostics, Organon Technica, Oklahoma City, Okla.) using the Automated aPTT Platelin® reagent (Organon Technica, Durham, N.C.) and Simplastin® Excel (Organon Technica, Durham, N.C.) respectively, as initiators of clotting according to the manufacturer's instructions.
(§3) The assays were conducted by making a series of dilutions of each tested NAP in rapidly thawed plasma followed by adding 200 microliters or 100 microliters of the above referenced reagents to the wells of the assay carousel for the aPTT or PT measurements, respectively. Alternatively, the NAPs were serially diluted into HBSA and 10 μl of each dilution were added to 100 μl of normal human plasma in the wells of the Coag-A-Mate assay carousel, followed by addition of reagent.
Concentrations of NAP were plotted against clotting time, and a doubling time concentration was calculated, i.e., a specified concentration of NAP that doubled the control clotting time of either the PT or the aPTT. The control clotting times (absence of NAP) in the PT and APTT were 12.1 seconds and 28.5 seconds, respectively.

Data set [3] concerns the target human rFVIIa/rTF/PLV complex. Briefly: Factor VIIa/Tissue factor amidolytic assay. Type of data set: biochemical. As to the method: Lyophilized, purified, recombinant human factor VIIa was obtained from BiosPacific, Inc. (Emeryville, Calif.), and reconstituted in HBS (10 mM HEPES, pH 7.5, 150 mM sodium chloride) prior to use. Purified human Factor X was obtained from Enzyme Research Laboratories, Inc. (South Bend, Ind.) and Factor Xa (free FXa) was activated and prepared from Factor X as described (Bock, P. E., Craig, P. A., Olson, S. T., and Singh, P. Arch. Biochem. Biophys. 273: 375-388 (1989)). Active site-blocked human Factor Xa (EGR-FXa), which had been irreversibly inactivated with L-Glutamyl-L-glycyl-L-arginyl chloromethylketone, was obtained from Haematologic Technologies, Inc. (Essex Junction, Vt.). Recombinant human tissue factor (rTF) was produced by a baculovirus-expression system, and purified to homogeneity by monoclonal antibody affinity chromatography (Corvas International, Inc., San Diego, Calif.).
The purified rTF apoprotein was incorporated into phospholipid vesicles (rTF/PLV), consisting of phosphotidyl choline (75%, w/v) and phosphotidyl serine (25%, w/v) in the presence of detergent, as described by Ruf et al. (Ruf, W., Miles, D. J., Rehemtulla, A., and Edgington, T. S. Methods in Enzymology 222: 209-224 (1993)). The phospholipids were purchased from Avanti Polar Lipids, (Alabaster, Ala.). The buffer used for all assays was HBSA, HBS containing 0.1% (w/v) bovine serum albumin. All reagents were obtained from Sigma Chemical Cb. (St. Louis, Mo.), unless otherwise indicated.
rFVIIa/rTF amidolytic activity was determined using the chromogenic substrate S-2288 (H-D-isoleucyl-L-prolyl-L-arginine-p-nitroaniline), obtained from Kabi Pharmacia Hepar, Inc. (Franklin, Ohio). The substrate was reconstituted in deionized water prior to use. rFVIIa and rTF/PLV were combined in a polypropylene test tube, and allowed to form a complex for 10 min in HBSA, containing 3 mM CaCl2. […] Following an incubation of 30 min at ambient temperature, the triplicate reactions were initiated by adding 50 μL of S-2288.
The amidolytic activity of rFVIIa/rTF/PLV was measured as a linear increase in the absorbance at 405 nm over 10 min (velocity), using a Thermo Max® Kinetic Microplate Reader (Molecular Devices, Palo Alto, Calif.), under steady-state conditions, where less than 5% of the substrate was consumed. Ratios of inhibited pre-equilibrium, steady-state velocities (Vi), in the presence of NAP, to the uninhibited velocity in the presence of free fXa alone (Vo) were plotted against the corresponding concentrations of NAP.

Data set [4] has as its system normal citrated human plasma. Briefly: Activated partial thromboplastin time (aPTT) assay. The following applies: concentration that doubled the control clotting time (28.5 seconds) of normal human plasma. The class given is biochemical. As to the method:
as §1, §2, §3
Concentrations of NAP were plotted against clotting time, and a doubling time concentration was calculated, i.e., a specified concentration of NAP that doubled the control clotting time of either the PT or the aPTT.

For data set [5], the system named is acute coronary artery thrombosis. The data set is described as follows: Pig model of acute coronary artery thrombosis. The following applies: for Time of Occulsion: non-occluded vessels assigned 240 minutes. Type of data set: in vivo. The text has this:
The protocol used in these studies is a modification of a thrombosis model which has been reported previously (Lucchesi, B. R., et al., (1994), Brit. J. Pharmacol. 113: 1333-1343).
Animals were anesthetized and instrumented with arterial and venous catheters (left common carotid and external jugular, respectively). A thoracotomy was made in the 4th intercostal space and the heart was exposed. The left anterior descending (LAD) coronary artery was isolated from the overlying connective tissue and was instrumented with a Doppler flow probe and a 17 gauge ligature stenosis. An anodal electrode also was implanted inside the vessel.
Baseline measurements were taken and the NAP or placebo to be tested was administered via the external jugular vein. Five minutes after administration, a direct current (300 μA, DC) was applied to the stimulating electrode to initiate intimal damage to the coronary endothelium and begin thrombus formation. Current continued for a period of 3 hours. Animals were observed until either 1 hour after the cessation of current or the death of the animal, whichever came first.
The incidence of occlusion in the animals receiving placebo was 8/8 (100%). Time to occlusion in placebo treated animals was 66.6±7.5 min. (mean±sem).

Where [6] appears, read: No FXa Addition, read-out: Ki* (pM) Amidolytic Assay, No FXa Addition.

Where two headings read alike, the source gives them in different places. Marks after values point to notes of the source that are not given here.

In the case of `CC1CNc2c(cccc2S(=O)(=O)N[C@@H](CCCNC(=N)N)C(=O)N2CC[C@@H](C)C[C@@H]2C(=O)O)C1` (some centres unmarked) [Argatroban], the ED50 in data set [1] (read-out: ED50) turned out to be 3.8 mg/kg.

For “rTAP: recombinant Tick Anticoagulant Peptide, 60 amino acid factor Xa inhibitor from Ornithodoros moubata (YNRLCIKPRDWIDECDSNEGGERAYFRNGKGGCDSFWICPEDHTGADYYSSYRDCFNACI; UniProt P17726 1-60, looked up)”, the ED50 in data set [1] came to 0.6 mg/kg.

B1: AcaNAPc2: NAP of Ancylostoma caninum isolated by phage display, SEQ. ID. NO. 59; fVIIa/TF inhibitor (protein)
chain: KATMQCGENEKYDSCGSKECDKKCKYDGVEEEDDEEPNVPCLVRVCHQDCVCEEGFYRNKDDKCVSAEDCELDNMDFIYPGTRN
As for B1, the “Doubling Concentration (nM) in the PT” value in data set [2] is recorded as 15 ± 1 nM. In data set [3] (setting [6]), the Ki was > 1500 pM.

B2: AceNAP4: NAP of Ancylostoma ceylanicum with two NAP domains, SEQ. ID. NO. 62 (protein)
chain: KPNNVMTNACGLNEYFAECGNMKECEHRCNEEENEERDEERITACLIRVCFRPGACVCKDGFYRNRTGSCVEEDDCEYENMEFITFAPEVPICGSNERYSDCGNDKQCERKCNEDDYEKGDEACRSHVCERPGACVCEDGFYRNKKGSCVESDDCEYDNMDFITFAPETSR
B2: the “Doubling Concentration (nM) in the PT” value in data set [2] is on record as 40 ± 4 nM. Besides, in data set [4], the “Doubling Concentration (nM) in the aPTT” value came out at 115 ± 12 nM.

B3: AcaNAP6: NAP of Ancylostoma caninum, SEQ. ID. NO. 6; recombinant, made in Pichia pastoris (protein)
chain: KAYPECGENEWLDVCGTKKPCEAKCSEEEEEDPICRSFSCPGPAACVCEDGFYRDTVIGDCVKEEECDQHEIIHV
In the case of B3, the “Doubling Concentration (nM) in the PT” value in data set [2] is listed as 37 ± 3 nM. Also, in data set [4], the “Doubling Concentration (nM) in the aPTT” value amounted to 62 ± 0 nM. The Ki in data set [3] (setting [6]) was > 1500 pM; in data set [3] (Plus EGR-FXa (2.5 nM), read-out: Ki* (pM) Amidolytic Assay, Plus EGR-FXa) it was > 1500 pM.

B4: AcaNAPc2P: AcaNAPc2 with an additional proline residue at the C-terminus (protein)
chain: KATMQCGENEKYDSCGSKECDKKCKYDGVEEEDDEEPNVPCLVRVCHQDCVCEEGFYRNKDDKCVSAEDCELDNMDFIYPGTRNP
In the case of B4, in data set [2], the “coagulation time of human plasma (Prothrombin Time Assay), in words” value is “prolongation of the coagulation time of human plasma”. Moreover, the “in vitro activity in inhibitory assays of rFVIIa/rTF activity, compared with AcaNAPc2” value in data set [3] was “substantially the same as AcaNAPc2”. In addition, in data set [5] (0.01 mg/kg i.v.), the “Incidence of Occlusion” value is reported as 6/6, the “Total Blood Loss” value amounted to 1.6 ± 0.3 mL and the “Time of Occulsion” value came to 105 ± 6.2 min. Also, in data set [5] (0.03 mg/kg i.v.), the “Incidence of Occlusion” value was 4/6; the “Total Blood Loss” value was found to be 4.9 ± 1.4 mL; the “bleeding, in words” value is on record as “did not produce significant elevations in bleeding”; the “time to occlusion, in words” value is recorded as “significantly prolonged”. Further, the “Time of Occulsion” value in data set [5] (0.03 mg/kg i.v.) came out at 159 ± 27 min. Moreover, in data set [5] (0.10 mg/kg i.v.), the “Incidence of Occlusion” value is listed as 2/6†, the “Total Blood Loss” value is 17.6 ± 7.9 mL and the “Time of Occulsion” value is 215 ± 25 min.

B5: Pro-AcaNAP5: AcaNAP5 with four additional N-terminal amino acids, SEQ. ID. NO. 7, made in COS cells (protein)
chain: RTVRKAYPECGENEWLDDCGTQKPCEAKCNEEPPEEEDPICRSRGCLLPPACVCKDGFYRDTVIGDCVREEECDQHEIIHV
With B5, the “Doubling Concentration (nM) in the PT” value in data set [2] is 21.9 nM. The “Doubling Concentration (nM) in the aPTT” value in data set [4] amounted to 31.0 nM.

B6: AcaNAP42: NAP of Ancylostoma caninum, SEQ. ID. NO. 47; AcaNAP31, 42 and 46 encode identical proteins (protein)
chain: KSLWDQKCGENERLDCGNQKDCERKCDDKRSEEEIMQACLTRQCLPPVCVCEDGFYRNDNDQCVDEEECNMEFITFAP
For B6, in data set [2], the “coagulation time of human plasma (Prothrombin Time Assay), in words” value is given as “prolongation of the coagulation time of human plasma”.
